Test results: patent US6323311A, “Synthesis of insulin derivatives” (University of Utah Research Foundation, priority 1999, dated 2001)
Where two headings read alike, the source gives them in different places.

Assays:
male Sprague-Dawley rats = assay: Biological activity of mCE-PEG insulin conjugates, blood glucose depression in rat after i.v. injection; assay type: in vivo; conditions: from blood glucose AUC vs unmodified human insulin, fresh solution in PBS 20 μg/ml
Procedure: The biological activity of mCE-PEG-substituted insulin conjugates was tested in a rat model (male Sprague-Dawley rats, 250±50 g) by measuring blood glucose depression levels. The animals were fasted overnight (16 hours) prior to the experiment. In the morning, the rats were anesthetized with intraperitoneally administered sodium pentobarbital. Each animal received an i.v. injection (tail vein) of the particular insulin derivative (20 μg/ml NS/kg). Blood samples were taken from the jugular vein 15 and 5 minutes before injection and 15, 30, 60, 90, 120, 180, and 240 minutes after injection. Blood glucose levels were measured with an Accucheck III blood glucose monitor (Boehringer Mannheim). Bioactivities of insulin derivatives were calculated from AUC (area under curve) values, and the AUC value for the same dose of unmodified human insulin.

[1] = Accelerated shaking test, physical stability of mCE-PEG insulin conjugates (fibril formation/precipitation); assay type: physicochemical; conditions: 87 μM, 37° C., shaker 100 strokes/min, n=14 vials
Procedure: The long term physical stability of PEG-insulin derivatives was examined by their tendency to form fibrils in the accelerated shaking test at a concentration of 87 μM. Aggregation was evaluated in 5 ml borosilicate glass vials (1.2 ml filling volume) at 37° C., in a shaker at 100 strokes/min. Individual vials (n=14) were withdrawn at determined times, and the remaining soluble fraction of particular PEG-insulin derivatives was determined after filtration (PVDF membrane, 0.22 μm) using UV spectroscopy and/or HPLC. In parallel, vials were checked visually on a daily basis for the presence of turbidity and/or a precipitate, which was an independent indication that physical aggregation had occurred.

[2] = tested on: Inbred A/J and C57BL/10ScSn mice; conditions: intraperitoneal, 3 x 5 μg
Procedure: Inbred A/J and C57BL/10ScSn mice, 12 weeks old, were used throughout the experiments. Mice (10 per experimental group) were immunized intraperitoneally with 5 μg samples on day 0. Samples were injected either in soluble form (dissolved in PBS, pH 7.4) or as a precipitate (alum precipitate). After 3 weeks, the mice were given a secondary injection, and after another 3 weeks, a third injection. Eight days after the last immunization, the mice were exsanguinated and the serum was separated and stored at -80° C. The specific antibody level in the serum was determined by an ELISA indirect method as described in 44 J. Clin. Lab. Immunol. 191-241 (1994).

[3] = strain A/J, Soluble formulation
[4] = strain B10, Soluble formulation

Row | Substance | Biological Activity ± S.D. (male Sprague-Dawley rats) | Days to Precipitation ± S.D. [1] | Antibody Titres ([2]; strain A/J, Alum ppt.) | Antibody Titres [2, 3] | Antibody Titres ([2]; strain B10, Alum ppt.) | Antibody Titres [2, 4]
1 | GlyA1-LysB29-di-mCE-PEG insulin [A1-B29-(PEG2000)2 Insulin] | 10.6 ± 2.1 IU/mg |  |  |  |  | 
2 | GlyA1-PheB1-LysB29-tri-mCE-PEG insulin [A1-B1-B29-(PEG600)3 Insulin] | 5.3 ± 1.1 IU/mg | 35.9 ± 5.3 days | 0 log2 of serum dilution | 0 log2 of serum dilution | 0 log2 of serum dilution | 0 log2 of serum dilution
3 | GlyA1-mCE-PEG insulin [A1-PEG2000 Insulin] | 15.7 ± 3.1 IU/mg |  |  |  |  | 
4 | GlyA1-LysB29-di-mCE-PEG insulin [A1-B29-(PEG600)2 Insulin] | 19.1 ± 3.6 IU/mg | 8.4 ± 1.3 days |  |  |  | 
5 | PheB1-mCE-PEG insulin [B1-PEG2000 Insulin] | 15.4 ± 2.6 IU/mg |  | 0 log2 of serum dilution | 0 log2 of serum dilution | 0 log2 of serum dilution | 0 log2 of serum dilution
6 | PheB1-mCE-PEG insulin [B1-PEG600 Insulin] | 22.8 ± 4.2 IU/mg | 22.0 ± 4.6 days | 6.1 log2 of serum dilution | 0 log2 of serum dilution | 9.5 log2 of serum dilution | 0 log2 of serum dilution
7 | GlyA1-mCE-PEG insulin [A1-PEG600 Insulin] | 22.2 ± 4.2 IU/mg |  |  |  |  | 
8 | GlyA1-PheB1-di-mCE-PEG insulin [A1-B1-(PEG600)2 Insulin] | 16.2 ± 3.2 IU/mg | 26.4 ± 4.6 days |  |  |  | 
9 | GlyA1-PheB1-di-mCE-PEG insulin [A1-B1-(PEG2000)2 Insulin] |  | 19.3 ± 2.3 days |  |  |  | 
